Stoichiometry N data for one substance are collected here from publication doi:10.1101/2024.05.10.593530.

In this experiment the target is Vibrio cholerae DdmD (Vibrio cholerae). Nature of the experiment: SEC-MALS. Background: Size exclusion chromatography separates by hydrodynamic size, large species first.

For Vibrio cholerae DdmD (enzyme), the stoichiometry N was 2.

In general, stoichiometry N refers to a count of units in the complex or per binding partner.
